Here are results for six molecules from patent publication US20250339466A1 (published 2025).

T1: human BCMA on BCMA overexpressing CHO cells (human, UniProt Q02223 1-184)
T1 construct: also called hBCMA CHO; Hu BCMA (FACS)
T1 chain: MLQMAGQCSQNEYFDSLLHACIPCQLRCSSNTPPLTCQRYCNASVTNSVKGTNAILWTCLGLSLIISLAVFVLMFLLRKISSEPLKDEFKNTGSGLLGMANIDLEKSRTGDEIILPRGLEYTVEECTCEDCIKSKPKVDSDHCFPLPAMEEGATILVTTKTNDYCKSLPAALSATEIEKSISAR

B1: anti-BCMA scFv clone from phage display, periplasmic extract (Table 3, second row; VH printed there as SEQ ID NO: 26, VL as SEQ ID NO: 25) (scFv)
chain: QITLRESGGDVVQPGRSLRLSCAASGFTFSSYAIHWVRQAPGKGLEWVAVTWHDGSNKYYAESVMGRFTISRDNSKNTLYLHMNSLRAEDTGVYYCARAKFGEPQYFQHWGQGTLVTVSSDIVMTQSPSFLSASVGDRVTITCRASQGINNYLAWYQQKPGIAPKLLIYAASTLQSGVPSRFGGSGSGTEFTLTISSLQPEDFATYYCQQLKSYPFTFGPGTKVEIK
B2: anti-BCMA scFv clone from phage display, periplasmic extract (Table 3, third row; VH printed there as SEQ ID NO: 10, VL as SEQ ID NO: 27) (scFv)
chain: EVQLVESGGDVVQPGRSLRLSCAASGFTFSSYAIHWVRQAPGKGLEWVAVTWHDGSNKYYAESVMGRFTISRDNSKNTLYLHMNSLRAEDTGVYYCARAKFGEPQYFQHWGQGTTVTVSSDIVMTQSPSFLSASVGDRVTITCRASQGISSYLAWYQQKPGKAPKLLIYAASTLQSGVPSRFSGSGSGTEFTLTISSLQPEDFATYYCQQLNSYPFTFGPGTKVDIK
B3: anti-BCMA scFv clone from phage display, periplasmic extract (Table 3, first row; VH printed there as SEQ ID NO: 26, VL as SEQ ID NO: 23) (scFv)
chain: B2 chain with E1Q, V2I, Q3T, V5R, T115L, F216W, P220Q
B4: anti-BCMA scFv clone from phage display, periplasmic extract (Table 3, first row; VH printed there as SEQ ID NO: 26, VL as SEQ ID NO: 23) (scFv, V domains shown, part only)
VH: QITLRESGGDVVQPGRSLRLSCAASGFTFSSYAIHWVRQAPGKGLEWVAVTWHDGSNKYYAESVMGRFTISRDNSKNTLYLHMNSLRAEDTGVYYCARAKFGEPQYFQHWGQGTLVTVSS
VL: DIVMTQSPSFLSASVGDRVTITCRASQGISSYLAWYQQKPGKAPKLLIYAASTLQSGVPSRFSGSGSGTEFTLTISSLQPEDFATYYCQQLNSYPWTFGQGTKVDIK
modifications: linker not stated
B5: anti-BCMA scFv clone from phage display, periplasmic extract (Table 3, third row; VH printed there as SEQ ID NO: 10, VL as SEQ ID NO: 27) (scFv, V domains shown, part only)
VH: B4 VH with Q1E, I2V, T3Q, R5V, L115T
VL: B4 VL with W96F, Q100P
modifications: linker not stated
B6: anti-BCMA scFv clone from phage display, periplasmic extract (Table 3, second row; VH printed there as SEQ ID NO: 26, VL as SEQ ID NO: 25) (scFv, V domains shown, part only)
VH: B4 VH
VL: B4 VL with S30N, S31N, K42I, S63G, N92K, W96F, Q100P, D105E
modifications: linker not stated

Where a chain is given by its changes, count along the chain named.

T2 sequence (A0A2K5UD97 entry or part of it limits assumed, form in doubt): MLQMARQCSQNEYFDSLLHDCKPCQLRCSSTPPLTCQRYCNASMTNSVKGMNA

The target of one assay is T1, human BCMA on BCMA overexpressing CHO …. Kind of assay: flow cytometry, periplasmic extract of scFv on cells with human BCMA. On the technique in general: In flow cytometry, cells or beads pass a laser one at a time.
On to B1, for which the “PE FACS % Binding Hu BCMA” value amounted to 54.6%.

B2: the “PE FACS % Binding Hu BCMA” value amounted to 47.2%.

Regarding B3, the “PE FACS % Binding Hu BCMA” value worked out at 89%.

Another assay concerns the target Bio-huBCMA-His (biotinylated human BCMA with His tag) (human) (UniProt Q02223). Description: ELISA, periplasmic extract of scFv on biotinylated human BCMA-His.
As for B4, the PE ELISA Bio-huBCMA-His came out at 1.1.

B5 came in with a PE ELISA Bio-huBCMA-His of 0.516.

B6: the PE ELISA Bio-huBCMA-His was 1.11.

Another assay addresses T2, Bio-cyBCMA-His (biotinylated cynomolgus BCMA with His tag) (cynomolgus, UniProt A0A2K5UD97 1-53, Biotinylated (site not stated); C- or N-terminal His tag not carried in the letters).
T2 construct: not shown: biotin label
Description: ELISA, periplasmic extract of scFv on biotinylated cynomolgus BCMA-His.
On to B1, for which the “PE Elisa Bio-cyBCMA-His” value turned out to be 0.122.

As for B2, the “PE Elisa Bio-cyBCMA-His” value was 0.126.

In the case of B3, the “PE Elisa Bio-cyBCMA-His” value was found to be 0.147.
